Laboratory results reported in US9163048B2, “Multi-functional nucleic acid-based anti-cancer drug capable of targeting and therapy, method for preparing same and anti-cancer composition comprising same” (RESEARCH & BUSINESS FOUNDATION SUNGKYUNKWAN UNIVERSITY, priority 2011, dated 2015).

B1: linear nucleic acid (nucleic acid)
chain 1: GCTACGAGTAGGTACGGATCTGGCTGTACTGATGTGCCTGCGAC
chain 2: GTCGCAGGCACATCAGTACAGCCAGATCCGTACCTACTCG
modifications: chemistry not given here

Assays:
[1] = tested on: prostate cancer cells (LNCaP cell line); experiment: Anticancer effect, acridine orange / propidium iodide staining, confocal microscope; type: cell-based; settings: 2 hours treatment, 24 hours culture, NIR radiation 10 minutes, 10 μM contained doxorubicin
Description: In addition, after the cells were treated with 10 μM (concentration of the contained doxorubicin) of the multifunctional nucleic-acid-based anticancer drug for 2 hours, the medium was exchanged with a fresh RPMI 1640 medium to remove the multifunctional nucleic-acid-based anticancer drug remaining at an outside of the cells, and the cells were cultured for 24 hours. Afterward, the cells were irradiated with […] for 10 minutes, and stained with acridine orange and propidium iodide (PI). As a control group, instead of the multifunctional nucleic-acid-based anticancer drug, a test was performed using phosphate buffered saline, doxorubicin, gold nanoparticles, an A10 aptamer and an anticancer-drug-captured nucleic acid structure.
This means that the multifunctional nucleic-acid-based anticancer drug can kill cells more effectively by applying both doxorubicin (chemotherapy) and an exothermic effect (thermal treatment).

[2] = Capture of doxorubicin in linear nucleic acid, autofluorescence of unbound doxorubicin in supernatant; type: physicochemical; settings: per 1 μM linear nucleic acid (SEQ ID NOs 1 and 2); room temperature, 24 hours
Description: A supernatant was retrieved, and autofluorescence of the doxorubicin not binding to the linear nucleic acid was detected using a molecular device (SpectraMax M2 Microplate Reader).

Molecule | cell death (PI staining, red fluorescence) [1] | maximum doxorubicin bound per 1 μM linear nucleic acid [2] [µM]
COc1cccc2c1C(=O)c1c(O)c3c(c(O)c1C2=O)C[C@@](O)(C(=O)CO)C[C@@H]3O[C@H]1C[C@H](N)[C@H](O)[C@H](C)O1 [doxorubicin, reference compound] | dead cells stained with PI were observed | 
B1 | red fluorescence was hardly observed | 10
